{"source": "patent US20050214309A1", "about": "“Methods and compositions for modulating transcription factor activity” (published 2005)", "binders": {"B1": {"name": "AP1 oligonucleotide (dsDNA)", "DNA 1": "CGCTTGATGAGTCAGCCGGAA", "DNA 2": "TTCCGGCTGACTCATCAAGCG"}}, "target": "T1, ATF1 (Homo sapiens, UniProt P18846 SEQ:1-271)", "T1 sequence": "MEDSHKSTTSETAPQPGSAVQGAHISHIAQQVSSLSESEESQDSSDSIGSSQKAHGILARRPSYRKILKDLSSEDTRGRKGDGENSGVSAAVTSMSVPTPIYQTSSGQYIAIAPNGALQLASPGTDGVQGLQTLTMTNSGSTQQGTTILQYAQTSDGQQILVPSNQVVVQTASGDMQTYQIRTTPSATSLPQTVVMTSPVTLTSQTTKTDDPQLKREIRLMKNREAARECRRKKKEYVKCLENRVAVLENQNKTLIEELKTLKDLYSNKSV", "test": "competition; 100-fold excess unlabeled AP1 did not diminish ATF1/CRE complex", "conditions": "tags: E. coli pET-11d, DNA-cellulose purified", "data": [{"binder": "B1", "values": [{"measurement": "binding result", "result": "no binding"}]}]}
